{"source": "patent US20020164716A1", "about": "(GENETICS INSTITUTE, published 2002)", "binders": {"B1": {"name": "TNF-R1-DD ligand protein encoded by clone 20DD (ligand, not shown: large carriers)", "chain": "EKPLHALLHGRGVCLNEKSYREQVKIERDSREHEEPTTSEMAEETYSPKIFRPKHTRISELKAEAVKKDRRKKLTQSKFVGGAENTAHPRIISEPEMRQESEQGPCRRHMEASLQELKASPRMVPRAVYLPNCDRKGFYKRKQCKPSRGRKRGICWCVDKYGMKLPGMEYVDGDFQCHTFDSSNVE"}, "B2": {"name": "LexA-TNF-R1-DD fusion protein (death domain of the P55 type 1 TNF receptor) (receptor, UniProt P19438 355-442, looked up)", "chain": "DPATLYAVVENVPPLRWKEFVRRLGLSDHEIDRLELQNGRCLREAQYSMLATWRRRTPRREATLELLGRVLRDMDLLGCLEDIEEALC", "notes": "range 326-413; also called TNF-RDD; TNF-R death domain; not shown: LexA, bait fusion partner from plasmid pEG202"}, "B3": {"name": "TNF-R death domain mutant L351A (receptor, UniProt P19438 355-442, looked up)", "chain": "DPATLYAVVENVPPLRWKEFVRRLGASDHEIDRLELQNGRCLREAQYSMLATWRRRTPRREATLELLGRVLRDMDLLGCLEDIEEALC", "notes": "range 326-413; Numbering as printed, see the note of m7; not shown: LexA, bait fusion partner from plasmid pEG202"}, "B4": {"name": "TNF-R death domain mutant I408A (receptor, UniProt P19438 355-442, looked up)", "chain": "DPATLYAVVENVPPLRWKEFVRRLGLSDHEIDRLELQNGRCLREAQYSMLATWRRRTPRREATLELLGRVLRDMDLLGCLEDAEEALC", "notes": "as for B3"}, "B5": {"name": "TNF-R death domain mutant F345A (receptor, UniProt P19438 355-442, looked up)", "chain": "DPATLYAVVENVPPLRWKEAVRRLGLSDHEIDRLELQNGRCLREAQYSMLATWRRRTPRREATLELLGRVLRDMDLLGCLEDIEEALC", "notes": "as for B3"}, "B6": {"name": "TNF-R death domain mutant W378A (receptor, UniProt P19438 355-442, looked up)", "chain": "DPATLYAVVENVPPLRWKEFVRRLGLSDHEIDRLELQNGRCLREAQYSMLATARRRTPRREATLELLGRVLRDMDLLGCLEDIEEALC", "notes": "as for B3"}, "B7": {"name": "TNF-R1-DD expressed as a GST fusion protein (receptor)", "chain": "DPATLYAVVENVPPLRWKEFVRRLGLSDHEIDRLELQNGRCLREAQYSMLATWRRRTPRREATLELLGRVLRDMDLLGCLEDIEEALC", "notes": "range 326-413; Purified, bacterially expressed, held on glutathione beads; Numbering: see the note of m7; also called GST-TNF-R1-DD; GST/TNF-R1-DD; not shown: glutathione-S-transferase (GST) from a pGEX vector (Pharmacia)"}, "B8": {"name": "entire intracellular domain of TNF-R (TNF-R p55IC) (receptor, UniProt P19438 233-455, looked up)", "chain": "MYRYQRWKSKLYSIVCGKSTPEKEGELEGTTTKPLAPNPSFSPTPGFTPTLGFSPVPSSTFTSSSTYTPGDCPNFAAPRREVAPPYQGADPILATALASDPIPNPLQKWEDSAHKPQSLDTDDPATLYAVVENVPPLRWKEFVRRLGLSDHEIDRLELQNGRCLREAQYSMLATWRRRTPRREATLELLGRVLRDMDLLGCLEDIEEALCGPAALPPAPSLLR", "notes": "domain: entire intracellular domain; also called TNF-R p55JC; cytoplasmic domain of the p55 TNF-R"}, "B9": {"name": "death domain of the fas antigen (FasDD) (receptor, UniProt P25445 230-314, looked up)", "chain": "SKYITTIAGVMTLSQVKGFVRKNGVNEAKIDEIKNDNVQDTAEQKVQLLRNWHQLHGKKEAYDTLIKDLKKANLCTLAEKIQTII", "notes": "domain: death domain"}, "B10": {"name": "intracellular domain of the second TNF-R (TNF-R p75IC) (receptor, UniProt P20333 288-461, looked up)", "chain": "KKKPLCLQREAKVPHLPADKARGTQGPEQQHLLITAPSSSSSSLESSASALDRRAPTRNQPQAPGVEASGAGEARASTGSSDSSPGGHGTQVNVTCIVNVCSSSDHSSQCSSQASSTMGDTDSSPSESPKDEQVPFSKEECAFRSQLETPETLLGSTEEKPLPLGVPDAGMKPS", "notes": "domain: intracellular domain; also called TNF-R p75JC"}, "B11": {"name": "Drosophila transcription factor bicoid (other, UniProt P09081-2 2-160, looked up)", "chain": "AQPPPDQNFYHHPLPHTHTHPHPHSHPHPHSHPHPHHQHPQLQLPPQFRNPFDLLFDERTGAINYNYIRPYLPNQMPKPEELPDSLVMRRPRRTRTTFTSSQIAELEQHFLQGRYLTAPRLADLSAKLALGTAQVKIWFKNRRRRHKIQSDQHKDQSYE"}}, "key": {"[1]": {"target": "B2", "assay": "yeast interaction trap, panel of baits", "text": "(§1) A yeast genetic selection method, the “interaction trap” [Gyuris et al, Cell 75:791-803, 1993, which is incorporated herein by reference], was used to screen WI38 cell cDNA libraries (preparation, see below) for proteins that interact with the death domain of the P55 type 1 TNF receptor (TNF-R1-DD). A polynucleotide encoding amino acids 326 to 413 of the P55 type TNF receptor, TNF-R1-DD, was obtained via the polymerase chain reaction (PCR) using a grafting method. This TNF-R1-DD DNA was then cloned into pEG202 by BamHI and SalI sites, generating the bait plasmid, pEG202-TNF-R1-DD. This plasmid contains the HIS3 selectable marker, and expression of the bait, the LexA-TNF-R1-DD fusion protein, is from the strong constitutive ADH1 promoter. To create the reporter strain carrying the bait protein, yeast strain EGY48, containing the reporter sequence LexAop-Leu2 in place of the chromosomal LEU2, was transformed with pEG202-TNF-R1-DD and pSH18-34 (Ura+), which carries another reporter sequence, LexAop-lacZ. For screening cDNAs encoding proteins that interact with TNF-R1-DD, the expression vector pJG4-5 (TRP1), containing the WI38 cell cDNA library (see below for the cDNA library construction), was transformed into the above strain (EGY48/pEG202-TNF-R1-DD/pSH18-34) according to the method described by Gietz et al., Nucleic Acids Res., 20:1425 (1992).\n(§2) The clones “2DD,” “3DD” and “20DD” were chosen for further analysis. Library vector pJG4-5 containing these clones sequences were rescued from yeast by transforming the total yeast DNAs into the E. coli strain KC8 and selecting for growth on Trp-ampicillin plates."}, "[2]": {"target": "T1, TNF-R1-DD ligand protein encoded by clone 27TU (Homo sapiens (Human), UniProt Q8WXG6 1002-1647)", "T1 construct": "partial clone", "T1 sequence (Q8WXG6 other isoform, or with tags, fused parts or gaps)": "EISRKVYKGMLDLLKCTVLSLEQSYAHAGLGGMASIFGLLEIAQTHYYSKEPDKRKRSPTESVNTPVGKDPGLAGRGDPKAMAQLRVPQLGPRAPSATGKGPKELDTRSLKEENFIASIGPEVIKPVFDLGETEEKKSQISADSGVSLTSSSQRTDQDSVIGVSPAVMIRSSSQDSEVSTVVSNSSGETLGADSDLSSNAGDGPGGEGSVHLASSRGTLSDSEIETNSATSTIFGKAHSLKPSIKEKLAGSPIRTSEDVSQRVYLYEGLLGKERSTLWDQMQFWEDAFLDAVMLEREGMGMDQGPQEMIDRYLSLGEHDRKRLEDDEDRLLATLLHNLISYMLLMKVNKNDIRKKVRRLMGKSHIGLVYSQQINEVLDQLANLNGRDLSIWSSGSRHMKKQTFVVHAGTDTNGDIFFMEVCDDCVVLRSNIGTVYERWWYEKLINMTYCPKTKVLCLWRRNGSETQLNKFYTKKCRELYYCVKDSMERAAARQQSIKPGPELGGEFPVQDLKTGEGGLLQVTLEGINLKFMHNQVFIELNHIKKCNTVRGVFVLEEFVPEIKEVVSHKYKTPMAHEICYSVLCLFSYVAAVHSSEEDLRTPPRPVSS", "assay": "yeast interaction trap, panel of baits", "text": "(§3) The ability of these clones to bind the TNF-R death domain was compared to their binding to the intracellular domain of the second TNF-R (TNF-R p75IC), the entire intracellular domain of TNF-R (TNF-R p55IC), the death domain of the fas antigen (which shares 28% identity with TNF-R-DD) (FasDD), the Drosophila transcription factor bicoid, and a region of the IL-1 receptor known to be critical for signalling (IL-1R₄₇₇₋₅₂₇)."}, "[3]": {"target": "T2, TNF-R1-DD ligand protein encoded by clone 2DD (Homo sapiens (Human), UniProt Q8WXG6 1217-1647)", "T2 construct": "partial clone of a longer protein", "T2 sequence (Q8WXG6 other isoform, or with tags, fused parts or gaps)": "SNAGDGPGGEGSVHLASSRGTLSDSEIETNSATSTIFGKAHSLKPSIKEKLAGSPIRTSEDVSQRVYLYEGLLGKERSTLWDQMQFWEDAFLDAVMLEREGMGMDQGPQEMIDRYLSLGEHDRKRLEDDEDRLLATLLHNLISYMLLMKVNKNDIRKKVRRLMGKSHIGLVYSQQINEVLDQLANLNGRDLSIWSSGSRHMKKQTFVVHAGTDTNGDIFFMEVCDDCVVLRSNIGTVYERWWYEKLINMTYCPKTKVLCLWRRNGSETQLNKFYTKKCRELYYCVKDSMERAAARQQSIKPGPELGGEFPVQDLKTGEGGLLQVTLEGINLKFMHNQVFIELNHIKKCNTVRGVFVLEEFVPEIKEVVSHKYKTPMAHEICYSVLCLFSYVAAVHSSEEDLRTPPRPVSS", "assay": "yeast interaction trap, panel of baits", "text": "as §1, §2"}, "[4]": {"target": "T3, TNF-R1-DD ligand protein encoded by clone 3DD (Homo sapiens (Human), UniProt Q9H3U1 807-944)", "T3 construct": "partial clone", "T3 sequence": "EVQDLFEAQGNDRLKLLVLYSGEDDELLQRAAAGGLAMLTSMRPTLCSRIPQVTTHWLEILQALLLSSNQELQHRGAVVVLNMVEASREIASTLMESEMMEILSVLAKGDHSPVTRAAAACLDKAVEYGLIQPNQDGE", "assay": "yeast interaction trap, panel of baits", "text": "as §1, §2"}, "[5]": {"target": "T4, protein encoded by clone 15TU (Homo sapiens (Human), UniProt Q8WXG6 1329-1647)", "T4 construct": "The limits 289-607 are printed as approximate", "T4 sequence (Q8WXG6 1329-1647)": "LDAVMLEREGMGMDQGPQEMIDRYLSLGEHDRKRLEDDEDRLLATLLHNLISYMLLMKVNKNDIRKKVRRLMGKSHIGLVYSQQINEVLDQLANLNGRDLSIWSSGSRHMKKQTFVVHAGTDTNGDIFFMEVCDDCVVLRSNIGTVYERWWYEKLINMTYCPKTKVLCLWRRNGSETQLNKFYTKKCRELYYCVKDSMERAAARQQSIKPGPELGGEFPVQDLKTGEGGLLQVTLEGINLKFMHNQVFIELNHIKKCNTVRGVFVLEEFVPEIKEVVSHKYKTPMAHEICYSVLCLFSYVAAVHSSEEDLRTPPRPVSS", "assay": "yeast interaction trap, wild type against death domain mutants"}, "[6]": {"target": "T5, TNF-R1-DD ligand protein encoded by clone 1TU (Homo sapiens (Human), UniProt Q8TEL6 488-797)", "T5 construct": "partial clone", "T5 sequence": "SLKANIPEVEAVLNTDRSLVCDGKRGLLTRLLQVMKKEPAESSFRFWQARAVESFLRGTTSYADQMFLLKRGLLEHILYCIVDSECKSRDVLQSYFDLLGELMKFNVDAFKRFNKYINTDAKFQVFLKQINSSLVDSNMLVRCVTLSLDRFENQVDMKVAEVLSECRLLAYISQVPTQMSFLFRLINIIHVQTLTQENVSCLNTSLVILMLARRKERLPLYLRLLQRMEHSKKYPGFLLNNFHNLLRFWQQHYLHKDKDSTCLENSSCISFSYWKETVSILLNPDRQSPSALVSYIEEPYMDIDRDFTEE", "assay": "yeast interaction trap, wild type against death domain mutants"}, "[7]": {"target": "T4, protein encoded by clone 15TU", "assay": "yeast interaction trap, death domain mutants", "protocol": "(§4) The ability of each clone to interact with four single-site mutations in the TNF-R death domain (each known to abolish signalling) was measured."}, "[8]": {"target": "T1, TNF-R1-DD ligand protein encoded by …", "assay": "yeast interaction trap, death domain mutants", "protocol": "as §4"}, "[9]": {"target": "T5, TNF-R1-DD ligand protein encoded by …", "assay": "yeast interaction trap, death domain mutants", "protocol": "as §4"}, "MBP protein": {"target": "MBP protein (UniProt P0AEX9 27-392 = MBP)", "assay": "pull-down on glutathione beads, Western blot with anti-MBP antibody", "protocol": "The reaction ws performed at 4° C. for 2 hours and centrifuged to remove unbound fraction (Unbound). The beads were then washed with 500 μl binding buffer four times and resuspended into SDS-sample buffer (Bound)."}, "[10]": {"target": "T4, protein encoded by clone 15TU", "assay": "yeast interaction trap, panel of baits", "text": "as §3"}, "[11]": {"target": "T5, TNF-R1-DD ligand protein encoded by …", "assay": "yeast interaction trap, panel of baits", "text": "as §3"}}}
{"binder": "B1", "values": [{"measurement": "binding result", "setting": "[1]", "result": "binds"}]}
{"binder": "B2", "values": [{"measurement": "binding result", "setting": "[2]", "result": "binds"}, {"measurement": "binding result", "setting": "[3]", "result": "binds"}, {"measurement": "binding result", "setting": "[4]", "result": "binds"}, {"measurement": "binding result", "setting": "[5]", "result": "binds"}, {"measurement": "binding result", "setting": "[6]", "result": "binds"}]}
{"binder": "B3", "values": [{"measurement": "binding result", "setting": "[7]", "result": "binds"}, {"measurement": "binding result", "setting": "[8]", "result": "binds"}, {"measurement": "binding result", "setting": "[9]", "result": "binds"}]}
{"binder": "B4", "values": [{"measurement": "binding result", "setting": "[7]", "result": "binds"}, {"measurement": "binding result", "setting": "[8]", "result": "binds"}, {"measurement": "binding result", "setting": "[9]", "result": "binds"}]}
{"binder": "B5", "values": [{"measurement": "binding result", "setting": "[7]", "result": "binds"}, {"measurement": "binding result", "setting": "[8]", "result": "binds"}, {"measurement": "binding result", "setting": "[9]", "result": "binds"}]}
{"binder": "B6", "values": [{"measurement": "binding result", "setting": "[7]", "result": "binds"}, {"measurement": "binding result", "setting": "[8]", "result": "binds"}, {"measurement": "binding result", "setting": "[9]", "result": "binds"}]}
{"binder": "B7", "values": [{"measurement": "binding result", "setting": "MBP protein", "result": "no binding (tested: 3 µg)"}]}
{"binder": "B8", "values": [{"measurement": "binding result", "setting": "[10]", "result": "binds"}, {"measurement": "binding result", "setting": "[2]", "result": "binds"}, {"measurement": "binding result", "setting": "[11]", "result": "binds"}]}
{"binder": "B9", "values": [{"measurement": "binding result", "setting": "[10]", "result": "no binding"}, {"measurement": "binding result", "setting": "[2]", "result": "no binding"}, {"measurement": "binding result", "setting": "[11]", "result": "no binding"}]}
{"binder": "B10", "values": [{"measurement": "binding result", "setting": "[2]", "result": "no binding"}, {"measurement": "binding result", "setting": "[11]", "result": "no binding"}]}
{"binder": "B11", "values": [{"measurement": "binding result", "setting": "[10]", "result": "no binding"}, {"measurement": "binding result", "setting": "[2]", "result": "no binding"}]}
